Laboratory results from PMC9253517 (The Journal of Experimental Medicine, 2022).

Target: SARS-CoV-2 Wuhan-Hu-1 NTD (SARS-CoV-2, UniProt P0DTC2)
Experiment: cell-based or functional assay

Binder	neutralisation IC50, WT (293TAce2) [mg/L]
JN006 (antibody, V domains shown) VH: VQLVESGGGVVQPGRSLRLSCAASGFTFSNYVMHWVRQAPGKGLEWVAVMSSDGSIKYYADSVKGRFTVSRDNSKNTLYLQMNSLRPEDTAVYYCARGGRYSGSHTGDAFDIWGQGTMVTVSS VL: SYELTQPPSVSVSPGQTARITCSGDALPNRYSYWYQQKPGQAPVLVIFKDSERPSGIPERFSGSSSGTTVTLTISGVQAEDEADYYCQSADSSGTWVFGGGTKLTVL	> 1
JN019 (antibody, V domains shown) VH: VQLVESGGGVVQPGRSLRLSCAASGFTFSNYGMHWVRQAPGKGLEWVAFISYDANHKYSTNSVKGRFTISRDNSKNTLYLQMNSLRTEDTAVYYCASMDGLHPGTAQFYGMDVWGQGTTVTVSS VL: not shown	0.0345
JN021 (antibody, V domains shown) VH: QLQLQESGPGLVKPSETLSLTCTVSGGSIRSRGYYWGWIRQPPGKGLEWIGSIDYSGSTYYNPSLKSRVTISVDTSKNQFSLKLNSVTAADTAVFYCASSADTYYDILTGYYKGWYIDYWGQGTLVTVSS VL: LTQPRSVSGSPGQSVTISCAGTSSDVGGYNYVSWYQQHPGKAPKLMIFDVTKRPSGVPDRFSGSKSGNTASLTISGLQAEDDADYYCCSYAGSYTYWVFGGGTKLTVL	> 1
JN231 (antibody, V domains shown) VH: VQLVESGGGVVQPGRSLRLSCAASGFTFSSYGMHWVRQAPGKGLEWVAVISYDGSNKYYADSVKGRFTISRDNSKNTLYLQMNSLRAEDTAVYYCAKDSRYYDFWSGYLGPDEYYYYYYMDVWGKGTTVTVSS VL: not shown	> 1
